# From US20040166544A1
# How the values were obtained:
# [1] = target: c-Met (endogenous, on human cell lines 184B5, HCT-116, DU-145 and NCI H441) (human) (UniProt P08581); test: cell-based or functional assay
# [2] = target: c-Met/Fc Chimera (R&D Systems, catalog # 358-MT-100) (human) (UniProt P08581); test: competition ELISA: displacement of biotinylated HGF from plate-coated c-Met/Fc chimera, IgG, n = 2
# [3] = target: biotinylated c-Met-Fc (R&D Systems, #358-MT-100/CF, 5.1 biotin per c-Met molecule) (human) (UniProt P08581); test: SPR (BIAcore), biotinylated c-Met-Fc captured on streptavidin chip, IgG as analyte, bivalent model
# [4] = target: c-Met/Fc Chimera (R&D Systems, catalog # 358-MT-100) (human) (UniProt P08581); test: competition ELISA: displacement of biotinylated HGF from plate-coated c-Met/Fc chimera, Fab, n = 2
# [5] = target: c-Met/Fc Chimera (R&D Systems, catalog # 358-MT-100) (human) (UniProt P08581); test: SPR (BIAcore), c-Met-Fc captured on protein A CM5 chip, Fab as analyte, 1:1 Langmuir model
# Sequence of c-Met (endogenous, on human cell lines 184B5, HCT-116, DU-145 and NCI H441) (human) (P08581 25-1390): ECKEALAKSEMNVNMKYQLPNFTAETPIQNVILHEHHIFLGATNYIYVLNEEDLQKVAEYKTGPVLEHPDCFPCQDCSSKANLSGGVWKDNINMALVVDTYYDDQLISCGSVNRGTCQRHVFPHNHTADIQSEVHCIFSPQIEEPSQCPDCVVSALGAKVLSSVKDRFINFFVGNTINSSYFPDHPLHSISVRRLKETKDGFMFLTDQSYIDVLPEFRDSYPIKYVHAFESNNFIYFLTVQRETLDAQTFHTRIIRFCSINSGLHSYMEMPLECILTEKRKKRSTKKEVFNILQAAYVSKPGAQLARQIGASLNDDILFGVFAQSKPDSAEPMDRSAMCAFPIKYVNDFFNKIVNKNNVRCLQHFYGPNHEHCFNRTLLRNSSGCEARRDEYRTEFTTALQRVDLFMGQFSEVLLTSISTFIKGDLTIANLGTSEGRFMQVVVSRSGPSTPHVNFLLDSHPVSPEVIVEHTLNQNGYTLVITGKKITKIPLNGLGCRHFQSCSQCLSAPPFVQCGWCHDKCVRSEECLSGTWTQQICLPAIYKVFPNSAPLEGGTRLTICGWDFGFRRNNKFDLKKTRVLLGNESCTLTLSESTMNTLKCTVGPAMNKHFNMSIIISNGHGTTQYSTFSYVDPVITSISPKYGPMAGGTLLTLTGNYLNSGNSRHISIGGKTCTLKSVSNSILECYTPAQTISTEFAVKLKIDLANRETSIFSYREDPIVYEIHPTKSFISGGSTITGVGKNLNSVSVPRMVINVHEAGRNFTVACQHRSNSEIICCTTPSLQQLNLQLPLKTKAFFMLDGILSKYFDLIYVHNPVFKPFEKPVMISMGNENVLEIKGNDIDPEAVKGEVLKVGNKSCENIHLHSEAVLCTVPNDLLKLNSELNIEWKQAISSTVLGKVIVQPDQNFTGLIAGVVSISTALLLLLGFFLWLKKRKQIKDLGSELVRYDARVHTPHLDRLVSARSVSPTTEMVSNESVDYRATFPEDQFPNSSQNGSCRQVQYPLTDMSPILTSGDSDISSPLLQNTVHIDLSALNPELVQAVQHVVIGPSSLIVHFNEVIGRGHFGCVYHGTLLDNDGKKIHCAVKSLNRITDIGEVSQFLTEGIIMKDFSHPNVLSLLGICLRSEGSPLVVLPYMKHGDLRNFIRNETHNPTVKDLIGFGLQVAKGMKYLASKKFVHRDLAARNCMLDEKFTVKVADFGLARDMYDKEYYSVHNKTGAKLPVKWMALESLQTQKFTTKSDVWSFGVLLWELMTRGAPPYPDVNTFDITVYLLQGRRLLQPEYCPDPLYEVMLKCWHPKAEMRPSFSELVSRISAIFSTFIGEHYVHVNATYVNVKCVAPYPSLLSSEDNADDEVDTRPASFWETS
# Sequence of c-Met/Fc Chimera (R&D Systems, catalog # 358-MT-100) (human) (P08581 25-932, stated change not applied): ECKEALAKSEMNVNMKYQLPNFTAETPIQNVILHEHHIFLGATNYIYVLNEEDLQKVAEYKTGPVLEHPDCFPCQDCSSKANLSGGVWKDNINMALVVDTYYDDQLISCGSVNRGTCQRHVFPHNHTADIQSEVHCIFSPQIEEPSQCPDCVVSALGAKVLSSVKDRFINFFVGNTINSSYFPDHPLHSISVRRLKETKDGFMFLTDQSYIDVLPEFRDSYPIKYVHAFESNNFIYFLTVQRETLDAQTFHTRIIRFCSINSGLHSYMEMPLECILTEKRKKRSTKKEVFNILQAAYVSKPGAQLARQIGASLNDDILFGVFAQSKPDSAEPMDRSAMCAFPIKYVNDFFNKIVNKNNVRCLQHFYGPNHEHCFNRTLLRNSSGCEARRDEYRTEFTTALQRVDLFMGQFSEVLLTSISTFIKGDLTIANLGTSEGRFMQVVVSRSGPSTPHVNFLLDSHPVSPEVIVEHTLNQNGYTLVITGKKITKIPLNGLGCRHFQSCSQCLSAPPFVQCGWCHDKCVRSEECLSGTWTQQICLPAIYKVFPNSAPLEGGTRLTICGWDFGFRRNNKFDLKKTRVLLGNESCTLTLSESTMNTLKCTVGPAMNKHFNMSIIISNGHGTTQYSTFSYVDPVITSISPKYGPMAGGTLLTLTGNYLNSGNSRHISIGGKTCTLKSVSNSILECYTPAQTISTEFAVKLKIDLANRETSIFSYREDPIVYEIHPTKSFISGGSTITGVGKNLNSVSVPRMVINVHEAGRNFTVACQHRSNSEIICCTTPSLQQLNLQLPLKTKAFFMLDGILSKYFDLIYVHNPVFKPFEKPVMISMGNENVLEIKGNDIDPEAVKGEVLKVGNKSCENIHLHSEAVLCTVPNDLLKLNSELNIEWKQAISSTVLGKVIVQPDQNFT
# Sequence of biotinylated c-Met-Fc (R&D Systems, #358-MT-100/CF, 5.1 biotin per c-Met molecule) (human) (P08581 25-932): as the sequence (P08581 25-932, stated change not applied) above
substance,measurement,setting,value
"recombinant human HGF (rhHGF, R&D Systems) (from UniProt P14210 32-728) (ligand)","scatter assay on DU-145 cells, mean object area, 30 pM HGF alone, IgG series; the smaller the number, the more scattering (mean object area)",[1],324
same,"scatter assay on DU-145 cells, mean object area, media alone with 30 pM HGF (no antibody or Fab), Fab series; the smaller the number, the more scattering (mean object area)",[1],352
"c-Met antibody 1A3.3.13 (#HB-11894, ATCC Hybridoma), IgG",IC50,[2],0.5 nM
same,"scatter assay on DU-145 cells, mean object area, agonist (alone), 100 nM IgG; the smaller the number, the more scattering (mean object area)",[1],305
same,"scatter assay on DU-145 cells, mean object area, antagonist (w/30 pM HGF), 100 nM IgG; the smaller the number, the more scattering (mean object area)",[1],254
same,Kd,[3],1.4 nM
same,koff,[3],0.000289 s⁻¹
same,kon,[3],210000 M⁻¹ s⁻¹
"c-Met antibody 5D5.11.6 (#HB-11895, ATCC Hybridoma), IgG","scatter assay on DU-145 cells, mean object area, agonist (alone), 100 nM IgG; the smaller the number, the more scattering (mean object area)",[1],239
same,"scatter assay on DU-145 cells, mean object area, antagonist (w/30 pM HGF), 100 nM IgG; the smaller the number, the more scattering (mean object area)",[1],241
same,Kd,[3],5.9 nM
same,koff,[3],0.000406 s⁻¹
same,kon,[3],68800 M⁻¹ s⁻¹
"c-Met antibody 1A3.3.13 (#HB-11894, ATCC Hybridoma), Fab",IC50,[4],6.83 nM
same,"scatter assay on DU-145 cells, mean object area, agonist (alone), 100 nM Fab; the smaller the number, the more scattering (mean object area)",[1],597
same,"scatter assay on DU-145 cells, mean object area, antagonist (w/30 pM HGF), 100 nM Fab; the smaller the number, the more scattering (mean object area)",[1],400
same,Kd,[5],6.3 nM
same,koff,[5],0.00313 s⁻¹
same,kon,[5],497000 M⁻¹ s⁻¹
"HB94 (#HB-94, ATCC Hybridoma), IgG columns of Tables 9 and 10 (antibody)","scatter assay on DU-145 cells, mean object area, agonist (alone), 100 nM, IgG column; the smaller the number, the more scattering (mean object area)",[1],365
same,"scatter assay on DU-145 cells, mean object area, antagonist (w/30 pM HGF), 100 nM, IgG column; the smaller the number, the more scattering (mean object area)",[1],199
"HB-94 (#HB-94, ATCC Hybridoma) converted into a Fab fragment, Fab isotype control","scatter assay on DU-145 cells, mean object area, agonist (alone), 100 nM Fab; the smaller the number, the more scattering (mean object area)",[1],592
same,"scatter assay on DU-145 cells, mean object area, antagonist (w/30 pM HGF), 100 nM Fab; the smaller the number, the more scattering (mean object area)",[1],478
"c-Met antibody 5D5.11.6 (#HB-11895, ATCC Hybridoma), Fab",IC50,[4],9.72 nM
same,"scatter assay on DU-145 cells, mean object area, agonist (alone), 100 nM Fab; the smaller the number, the more scattering (mean object area)",[1],632
same,"scatter assay on DU-145 cells, mean object area, antagonist (w/30 pM HGF), 100 nM Fab; the smaller the number, the more scattering (mean object area)",[1],592
same,Kd,[5],1 nM
same,koff,[5],0.000129 s⁻¹
same,kon,[5],126000 M⁻¹ s⁻¹
